Assay results taken from patent US20050272636A1, “Treatment and diagnosis of a reproductive disorder by measuring or inhibiting interferon-gamma” (Adelaide Research & Innovation Pty Ltd., priority 2002, published 2005).
Each block holds one molecule with its values, some of them ahead of it.

Columns and labels:
[1] = system: human cervical epithelial cells; experiment: Effect of IFN-γ and TGFβ on GM-CSF synthesis in human cervical epithelial cells (Example 4); type: cell-based; details: 5.0 ng/ml recombinant human IFN-γ; 12 h; ELISA
Experimental: Human cervical epithelial cells were cultured using a modification of the technique described by Rheinwald et al., Cell 1975 3: 33143 (1975). Cervical biopsies were obtained from consenting women undergoing hysterectomy for non-malignant gynaecological indications. All the women were pre-menopausal, but no distinction was made regarding the stage of their menstrual cycle at the time of surgery. The cervical biopsies were placed in ice-cold Hank's balanced salt solution for transport to the laboratory, washed twice in antibiotic-containing medium, and incubated overnight at 4° C. in Dulbecco's modified Eagle's medium (DMEM) containing 5 U dispase (Boehringer Mannheim). Large sheets of keratinocytes were mechanically stripped from the biopsy using sterile forceps after a subsequent 1 h incubation at room temperature. Disaggregation into single cells was facilitated by incubation in DMEM/0.25% trypsin/0.05% collagenase for 30 minutes at 37° C., and repeated aspiration using a needle and syringe. […]
Supernatant was collected 12 hours later and assayed for GM-CSF activity using a commercial human GM-CSF specific ELISA (R & D Systems) according to the manufacturer's instructions. The GM-CSF content of post-treatment supernatants were normalised to the GM-CSF content of corresponding 12 h (baseline) supernatants and expressed as a percentage of control values.

IFNγ [2] = experiment: Inhibitors and antagonists counteracting the GM-CSF-inhibiting actions of IFNγ in uterine epithelial cells (Example 3); type: cell-based, mouse; details: for effect of TGFβ isoform on the inhibitory effect of IFNγ on GM-CSF synthesis: added in combination with IFNγ, dose-responsive, 5 ng/ml greater effect than 0.5 ng/ml
Experimental: Several inhibitors and antagonists of IFNγ were tested for their ability to counteract the GM-CSF-inhibiting actions of IFNγ in epithelial cells.
Uterine Epithelial Cell Cultures. Uterine epithelial cells prepared by pancreatin-trypsin digest as previously described (Robertson et al., (1992) Biol. Reprod. 46:1069-1079) were pooled from 4-6 estrous adult C57B1/6×CBA F1 female mice and plated in 1 ml culture wells (Nunc, Roskilde, Germany) at 1-2×10^5 cells per ml in 500 μl of RPMI containing 10% FCS and streptomycin (RPMI-FCS). Penicillin was omitted from culture media except where specified. After 4 h incubation at 37° C. in 5% CO2 to allow cell adherence, a further 500 μl of cytokines or antibodies in RPMI-FCS, or RPMI-FCS alone, were added. Cytokine treatments included recombinant mouse interferon-γ (rmIFNγ; R&D Systems), recombinant human transforming growth factor β1 (rhTGFβ1, R&D Systems), rhTGFβ2 (R&D Systems), rhTGFβ3 (OSI Pharmaceuticals). Antibody treatments included goat anti-mouse IFNγ receptor 1 (αIFNγR; R&D Systems AF1026) and hamster anti-mouse IFNγ (αIFNγ; R&D Systems MAB4851). Culture supernatants were collected and replaced with fresh complete RPMI-FCS alone at 16 hours, then collected again 24 hours later, at which time adherent cells were quantified as previously described (Robertson et al., (1992) Biol. Reprod. 46:1069-1079). The GM-CSF content of 24 h supernatants was determined by GM-CSF bioassay or immunoassay. All treatments were performed in duplicate or triplicate.
GM-CSF bioassay and immunoassay: Bioactive GM-CSF was assayed using the GM-CSF dependant cell line FD 5/12, essentially as previously described (Robertson et al., (1992) Biol. Reprod. 46:1069-1079). Cell proliferation was determined by the addition of 1 μCi of [^3H]-thymidine per well for the last 6 h of the assay. The minimal detectable amount of GM-CSF was […] The identity of the bioactivity in uterine epithelial cell cultures was confirmed using a goat polyclonal antibody to murine GM-CSF kindly provided by J. Schreurs (DNAX, Palo Alto, Calif.) as previously described (Robertson et al., (1992) Biol. Reprod. 46:1069-1079). GM-CSF immunoactivity was in some experiments measured by commercial mouse GM-CSF specific ELISA (R & D Systems) according to the manufacturer's instructions.

IFNγ [3] = biological target: T1, IFNγ (Mus musculus, UniProt P01580); experiment: Penicillin inhibition of the IFNγ effect on GM-CSF production in uterine epithelial cells (Example 2); type: cell-based; details: DMEM +penicillin versus DMEM -penicillin
T1 construct: purchased R&D Systems, UK
T1 sequence (P01580 23-155): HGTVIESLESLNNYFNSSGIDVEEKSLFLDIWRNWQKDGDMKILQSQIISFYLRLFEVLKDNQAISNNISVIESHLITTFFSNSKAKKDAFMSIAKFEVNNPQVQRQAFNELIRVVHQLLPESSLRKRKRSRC
Experimental: Uterine Epithelial Cell Cultures. Uterine epithelial cells prepared as previously described (Robertson et al., Biol Reprod 46:1069-1079 (1992)) were pooled from 4-6 estrous C57B1/6 or C57B1/6×Balb/c F1 mice and plated in 1 ml culture wells (Nunc, Roskilde, Germany) at 1-2×10^5 cells per ml in 500 μl of Dulbecco's modified Eagles medium containing 10% FCS, […] streptomycin sulphate and […] benzyl penicillin (DMEM +penicillin). After 4 h incubation at 37° C. in 5% CO2 to allow cell adherence, a further 500 μl of DMEM +penicillin, or DMEM +penicillin plus recombinant mouse IFNγ (rIFNγ) and/or recombinant human TGFβ1 (rTGFβ), were added. In some experiments, penicillin-free DMEM (DMEM −penicillin) was used throughout. Culture supernatants were collected and replaced with fresh medium at 16 hours, then collected again 24 hours later, at which time GM-CSF content was determined and adherent cells were quantified as previously described (Robertson et al., Biol Reprod 46:1069-1079 (1992)). […]
GM-CSF bioassay: GM-CSF was assayed using the GM-CSF dependant cell line FD 5/12, essentially as previously described (Robertson et al., Biol Reprod 46:1069-1079 (1992)). Cell proliferation was determined by pulsing with 1 μCi of [^3H]-thymidine per well for the last 6 h of the assay. […] GM-CSF production is expressed as ng GM-CSF/10^5 cells/24 h. […]

mice = experiment: Effect of IFN-γ treatment on pregnancy outcome in mice (Example 8); type: in vivo; details: for effect on the detrimental effects of IFN-γ on pregnancy outcome: implantation rate, viable versus resorbing fetuses, fetal and placental weight on day 18
Experimental: Mice are housed under specific pathogen-free conditions at the University of Adelaide Medical School Animal House on a 12:12 light-dark cycle, and administered food and water ad libitum. Adult Balb/c×C57B1/6 F1 females (7-10 weeks old) are synchronised into estrus by caging in close proximity to males. Estrus is identified on the basis of presence of cornified epithelial cells in vaginal smears prepared at 0900-1000 h daily and examined by phase contrast microscopy. On the day of estrus (day 0) females are caged with proven fertile Balb/k males for natural mating. The day of sighting a vaginal plug is nominated day 1 of pregnancy.
Mice are randomly allocated to one of four groups and treated as follows: Group 1 (100 ng IFN-γ) mice receive three intraperitoneal injections of […] recombinant mouse IFN-γ (rmIFN-γ, R&D Systems) in 200 μl PBS containing 1% bovine serum albumin (PBS-BSA) at 1700 h on day 0, at 1000 h on day 1 and 1700hon day 1.
Group 2 (250 ng IFN-γ) receive three injections of 250 ng rmIFN-γ according to the same time schedule.
Group 3 (control) receive three injections of PBS-BSA instead of IFN-γ according to the same time schedule.
Group 4 (comparison) Mice are mated but otherwise remain untreated.
Twenty mice per group are used to ensure statistical significance in treatment effects.
Alternatively, a transcervical delivery route for IFN-γ is used. Treatments are delivered directly into the uterine lumen with the aid of a tom-cat catheter (Sovereign, St Louis Mo.). In mated animals this requires removal of vaginal plugs using forceps to allow transcervical access. Mice are randomly allocated to one of four groups and treated as follows: the first group (100 ng IFN-γ) mice receive three transcervical injections of […] recombinant mouse IFN-γ (rmIFN-γ, R&D Systems) in 200 μl PBS containing 1% bovine serum albumin (PBS-BSA) at 1700 h on day 0, at 1000 h on day 1 and 1700 h on day 1. The second group (25 ng IFN-γ) receive three injections of 25 ng rmIFN-γ according to the same time schedule. The third group (control) receive three injections of PBS-BSA instead of IFN-γ according to the same time schedule. For comparison, a fourth group of mice are mated but otherwise would remain untreated. Twenty mice per group are used to ensure statistical significance in treatment effects.
Pregnant females are sacrificed by cervical dislocation at 1000 h -1200 h on day 18 of gestation. The intact uterus of each female is removed and total, viable and resorbing implantation sites counted. Each viable fetus is dissected from the amniotic sac and umbilical cord, and fetuses and placentae weighed. Placental tissues are fixed in paraformaldehyde and processed for histological staining of paraffin sections, using Masson's trichrome stain.

Molecule: IFN-γ: recombinant human IFN-γ (R & D Systems), used on human cervical epithelial cells in Example 4
effect of IFN-γ on GM-CSF synthesis [1]: inhibited GM-CSF synthesis

ability of penicillin to inhibit the effect of IFNγ on GM-CSF production (IFNγ [3]): inhibit the effect of IFNγ
Molecule: CC1(C)S[C@@H]2[C@H](NC(=O)Cc3ccccc3)C(=O)N2[C@H]1C(=O)O [penicillin, benzyl penicillin, reference compound]
IFNγ concentration required to inhibit GM-CSF synthesis after addition of penicillin (IFNγ [2]; penicillin at 60 μg/ml): ≥ 2.5 ng/mL
effect of penicillin on the GM-CSF inhibiting activity of IFNγ (IFNγ [2]; penicillin at 60 μg/ml): antagonised the GM-CSF inhibiting activity of IFNγ

B1: rhTGFβ3: recombinant human TGFβ3 (OSI Pharmaceuticals) (protein, UniProt P10600 301-412, looked up)
Transforming growth factor …: ALDTNYCFRNLEENCCVRPLYIDFRQDLGWKWVHEPKGYYANFCSGPCPYLRSADTTHSTVLGLYNTLNPEASASPCCVPQDLEPLTILYYVGRTPKVEQLSNMVVKSCKCS
modifications: Transforming growth factor beta-3
effect of TGFβ isoform on the inhibitory effect of IFNγ on GM-CSF synthesis (IFNγ [2]): counteracted the inhibitory effect
effect on the detrimental effects of IFN-γ on pregnancy outcome (mice): reverses the detrimental effects of IFN-γ

B2: IFN-γ: recombinant human IFN-γ (R & D Systems), used on human cervical epithelial cells in Example 4 (protein, UniProt P01579 24-161, looked up)
Interferon gamma: QDPYVKEAENLKKYFNAGHSDVADNGTLFLGILKNWKEESDRKIMQSQIVSFYFKLFKNFKDDQSIQKSVETIKEDMNVKFFNSNKKKRDDFEKLTNYSVTDLNVQRKAIHELIQVMAELSPAAKTGKRKRSQMLFRG
effect of IFN-γ on pregnancy outcome (mice; peritoneal cavity or uterine lumen, day of estrus and day 1, assessed day 18): impairs pregnancy outcome

B3: rhTGFβ2: recombinant human TGFβ2 (R&D Systems) (protein, UniProt P61812 303-414, looked up)
Transforming growth factor …: ALDAAYCFRNVQDNCCLRPLYIDFKRDLGWKWIHEPKGYNANFCAGACPYLWSSDTQHSRVLSLYNTINPEASASPCCVSQDLEPLTILYYIGKTPKIEQLSNMIVKSCKCS
modifications: Transforming growth factor beta-2
effect of TGFβ isoform on the inhibitory effect of IFNγ on GM-CSF synthesis (IFNγ [2]): counteracted the inhibitory effect
effect on the detrimental effects of IFN-γ on pregnancy outcome (mice): reverses the detrimental effects of IFN-γ
